Measurements taken from publication doi:10.1101/541805.

Molecular target: rat Kv2.2-GFP (rat) (UniProt Q63099)

With “GxTX-594 (guangxitoxin-1E Ser13Cys, Met35 norleucine, conjugated to Alexa 594) (from UniProt P84835 1-36) (peptide)” as the substance, how does the Pearson correlation coefficient (colocalization with GFP) read?
The Pearson correlation coefficient (colocalization with GFP) was 0.8.
